Results: patent US20240075137A1 (COMPUGEN, published 2024)
Read-outs that look alike come from different tables or passages of the source.

T1: human PVRIG on cells (human, UniProt Q6DKI7 1-326)
T1 construct: whole, on cells; over-expressed on HEK cells or endogenous on Jurkat and CD8 T cells; also called hPVRIG; HEK hPVRIG cells
T1 sequence (looked up): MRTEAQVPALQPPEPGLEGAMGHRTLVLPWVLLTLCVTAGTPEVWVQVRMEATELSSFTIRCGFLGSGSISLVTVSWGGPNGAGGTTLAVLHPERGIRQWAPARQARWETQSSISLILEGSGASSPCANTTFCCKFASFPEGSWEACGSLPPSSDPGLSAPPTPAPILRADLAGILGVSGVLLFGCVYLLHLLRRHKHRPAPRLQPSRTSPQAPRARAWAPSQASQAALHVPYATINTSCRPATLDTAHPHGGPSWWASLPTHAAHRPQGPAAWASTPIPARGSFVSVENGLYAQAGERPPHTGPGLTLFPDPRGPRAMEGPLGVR

T2: cynomolgus PVRIG on cells (cynomolgus, UniProt A0A2K5WVV8 41-322)
T2 construct: whole, on cells; also called cPVRIG; expi cPVRIG cells
T2 sequence: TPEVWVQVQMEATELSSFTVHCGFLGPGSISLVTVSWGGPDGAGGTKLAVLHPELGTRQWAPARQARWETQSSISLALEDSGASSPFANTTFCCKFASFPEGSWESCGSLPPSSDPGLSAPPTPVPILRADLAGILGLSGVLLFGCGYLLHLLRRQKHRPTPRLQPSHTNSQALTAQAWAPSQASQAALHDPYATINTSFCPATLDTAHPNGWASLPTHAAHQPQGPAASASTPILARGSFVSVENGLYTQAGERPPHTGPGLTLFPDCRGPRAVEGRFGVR

T3: PVRIG (FACS-based competition assay of FIGS. 7 and 15) (Homo sapiens, UniProt Q6DKI7)
T3 construct: made because the format of the assay is only described in U.S. Ser. No. 15/048,967; also called human PVRIG
T3 sequence (receptor, looked up): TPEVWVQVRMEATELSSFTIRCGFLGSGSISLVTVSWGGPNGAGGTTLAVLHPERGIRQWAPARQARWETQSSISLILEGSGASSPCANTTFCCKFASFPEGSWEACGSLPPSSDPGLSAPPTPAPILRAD


Key:
[1] = target: T1, human PVRIG on cells; experiment: FACS, HEK hPVRIG cells (HEK OE)
[2] = target: T2, cynomolgus PVRIG on cells; experiment: FACS, cyno PBMC, NK cells, 10ug/ml
[3] = target: T2, cynomolgus PVRIG on cells; experiment: FACS, cyno PBMC, NK cells, 10ug/ml; remark: listed apart in the source
[4] = target: T2, cynomolgus PVRIG on cells; experiment: FACS, cyno PBMC, CD8+ T cells, 10ug/ml
[5] = target: T2, cynomolgus PVRIG on cells; experiment: FACS, cyno PBMC, CD8+ T cells, 10ug/ml; remark: listed apart in the source
[6] = target: T1, human PVRIG on cells; experiment: FACS, human PBMC, CD8+ T cells, 10ug/ml
[7] = target: T1, human PVRIG on cells; experiment: FACS, human PBMC, CD8+ T cells, 10ug/ml; remark: listed apart in the source
[8] = target: T1, human PVRIG on cells; experiment: FACS, human PBMC, CD56 int. NK cells, 10ug/ml
[9] = target: T1, human PVRIG on cells; experiment: FACS, human PBMC, CD56 int. NK cells, 10ug/ml; remark: listed apart in the source
[10] = target: T1, human PVRIG on cells; experiment: FACS, Jurkat cells, relative to control, 3.3ug/ml
[11] = target: T1, human PVRIG on cells; experiment: FACS, HEK hPVRIG over HEK parental cells, 3.3ug/ml
[12] = target: T2, cynomolgus PVRIG on cells; experiment: FACS, expi cPVRIG over expi parental cells, 3.3ug/ml
[13] = target: T2, cynomolgus PVRIG on cells; experiment: as above; remark: listed apart in the source
[14] = target: T3, PVRIG (FACS-based competition assay of …); experiment: FACS-based competition assay of PVRIG blocking; format and competitor not given
[15] = target: T3, PVRIG (FACS-based competition assay of …); experiment: as above; remark: listed apart in the source

| Binder | EC50 [1] | gMFIr Cyno NK cells [2] | gMFIr Cyno NK cells [3] | gMFIr Cyno CD8+ T cells [4] | gMFIr Cyno CD8+ T cells [5] | gMFIr Human CD8+ T cells [6] | gMFIr Human CD8+ T cells [7] | gMFIr Human CD56 int. NK [8] | gMFIr Human CD56 int. NK [9] | gMFIr Jurkat [10] | gMFIr HEK OE/par [11] | gMFIr Expi cyno OE/par [12] | gMFIr Expi cyno OE/par [13] | IC50 [14] | IC50 [15] |
| --- | --- | --- | --- | --- | --- | --- | --- | --- | --- | --- | --- | --- | --- | --- | --- |
| CHA.7.543 (antibody, V domains shown) VH: QVQLKESGPGLVAPSQSLSITCTVSGFSLSGYGIKWVRQPPGKGLEWLGTIWGDGSTDYNSALKSRLSISKDNSKSQVFLKMTSLQTDDTARYYCASDSLGITFGYWGQGTLVTVSA VL: DIQMTQTTSSLSASLGDRVTISCRASQDISNYLNWYQQKPDGTVKLLIYYTSRLHSGVPSRFSGSGSGTDYSLTISNLEQEDIATYFCQQGNTLPLTFGAGTKLELK | 0.00052 µM | 1.35 | 1.35 | 1.39 | 1.39 | 4.33 | 4.33 | 4.48 | 4.48 | 6.73 | 49.8 | 0.83 | 0.83 | – | – |
| CHA.7.545 (antibody, V domains shown) VH: QIQLVQSGPDLKKPGETVKISCKASGYTFTTYGMSWVKQAPGRGLKWMGWINTYSGVSTFPDDFKGRFAFSLETSASTAYLQINNLKNEDSATYFCARLGMGSTTGAGYFDVWGTGTTVTVSS VL: DIVLTQSPAIMSASPGEKVTMTCSASSSVSSWYLHWYQQKSGASPKLWIYGTSNLASGVPARFSGSGSGTSYSLTISSVEAEDAATYYCQQYRSDPYTFGSGTKLEIK | 0.00076 µM | – | – | – | – | 2.82 | 2.82 | 2.54 | 2.54 | 6.53 | 44.3 | 0.91 | 0.91 | 0.0961 µM | 0.0961 µM |
| CHA.7.546 (antibody, V domains shown) VH: QIQLVQSGPELKKPGETVKISCKASGYTFTTYGMSWVKQAPGKGLKWMGWINTYSGVSTYADDFEGRFAFSLETSVSTAYLQINNLKNEDTATYFCARLGRGSTTGAGYLDVWGTGTTVTVSS VL: DIVLTQSPAIMSASPGEKVSMTCSASSSVSSWYLHWYQQKSGASPKLWIYGTSNLASGVPARFSGSGSGTSYSLTISSVEAEDAATYYCQQYHSDPYTFGSGTKLEIK | 0.00061 µM | – | – | – | – | 2.95 | 2.95 | 2.75 | 2.75 | 6.42 | 43.1 | 0.85 | 0.85 | 0.092 µM | 0.092 µM |
| CHA.7.547 (antibody, V domains shown) VH: QIQLVQSGPDLKKPGETVKISCKASGYTFTTYGMSWVKQAPGRGLKWMGWINTYSGVSTFPDDFKGRFAFSLETSASTAYLQINNLKNEDSATYFCARLGMGSTTGAGYFDVWGTGTTVTVSS VL: ENVLTQSPAIMSASLGEKVTLSCRASSSVNYMYWYQQKSDASPKLWIYYTSNLAPGVPARFSGSGSGNSYSLTISSVEGEDAATYYCQQFTSSPWTFGGGTKLEIK | 0.0144 µM | – | – | – | – | 1.13 | 1.13 | 2.21 | 2.21 | 1.02 | 10.9 | 26.6 | 26.6 | 0.0279 µM | 0.0279 µM |
